The chains are these.
B4: human TGF-β2 (ligand, UniProt P61812 303-414, looked up)
chain: ALDAAYCFRNVQDNCCLRPLYIDFKRDLGWKWIHEPKGYNANFCAGACPYLWSSDTQHSRVLSLYNTINPEASASPCCVSQDLEPLTILYYIGKTPKIEQLSNMIVKSCKCS
notes: also called hTGF-β2
B7: human TGF-β3 (ligand, UniProt P10600 301-412, looked up)
chain: ALDTNYCFRNLEENCCVRPLYIDFRQDLGWKWVHEPKGYYANFCSGPCPYLRSADTTHSTVLGLYNTLNPEASASPCCVPQDLEPLTILYYVGRTPKVEQLSNMVVKSCKCS
notes: also called hTGF-β3
B11: hENG(26-586) (R&D Systems, catalog #1097-EN) (receptor)
chain: ETVHCDLQPVGPERGEVTYTTSQVSKGCVAQAPNAILEVHVLFLEFPTGPSQLELTLQASKQNGTWPREVLLVLSVNSSVFLHLQALGIPLHLAYNSSLVTFQEPPGVNTTELPSFPKTQILEWAAERGPITSAAELNDPQSILLRLGQAQGSLSFCMLEASQDMGRTLEWRPRTPALVRGCHLEGVAGHKEAHILRVLPGHSAGPRTVTVKVELSCAPGDLDAVLILQGPPYVSWLIDANHNMQIWTTGEYSFKIFPEKNIRGFKLPDTPQGLLGEARMLNASIVASFVELPLASIVSLHASSCGGRLQTSPAPIQTTPPKDTCSPELLMSLIQTKCADDAMTLVLKKELVAHLKCTITGLTFWDPSCEAEDRGDKFVLRSAYSSCGMQVSASMISNEAVVNILSSSSPQRKKVHCLNMDSLSFQLGLYLSPHFLQASNTIEPGQQSFVQVRVSPSVSEFLLQLDSCHLDLGPEGGTVELIQGRAAKGNCVSLLSPSPEGDPRFSFLLHFYTVPIPKTGTLSCTVALRPKTGSQDQEVHRTVFMRLNIISPDLSGCTSKG
notes: also called soluble human ENG extracellular domain

In assay [1] the target is T1, human BMP-9 (human, UniProt Q9UK05 320-429).
T1 construct: also called hBMP-9
T1 sequence (looked up): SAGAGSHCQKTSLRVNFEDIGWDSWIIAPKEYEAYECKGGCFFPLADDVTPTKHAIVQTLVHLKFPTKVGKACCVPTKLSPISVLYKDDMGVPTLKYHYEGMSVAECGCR
Description: SPR, captured hENG-hFc, soluble ligand. A general note: In SPR one partner is held on a chip, and binding of the other changes the refractive index at the surface.

Assay [2] concerns the target T2, human BMP-10 (human, UniProt O95393 317-424).
T2 construct: also called hBMP-10
T2 sequence (looked up): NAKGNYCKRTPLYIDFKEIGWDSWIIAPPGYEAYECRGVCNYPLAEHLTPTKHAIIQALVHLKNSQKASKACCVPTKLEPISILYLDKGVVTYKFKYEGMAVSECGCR
Description: SPR, captured hENG-hFc, soluble ligand.

Assay [3] concerns the target B11. Description: SPR (Biacore), immobilized construct, soluble ligand.
Assay [4] addresses T3, mENG(27-581)-hFc (R&D Systems, catalog #1320-EN) (murine; human, UniProt Q63961 27-581).
T3 construct: Bought protein; not shown: Fc domain of human IgG1
T3 sequence: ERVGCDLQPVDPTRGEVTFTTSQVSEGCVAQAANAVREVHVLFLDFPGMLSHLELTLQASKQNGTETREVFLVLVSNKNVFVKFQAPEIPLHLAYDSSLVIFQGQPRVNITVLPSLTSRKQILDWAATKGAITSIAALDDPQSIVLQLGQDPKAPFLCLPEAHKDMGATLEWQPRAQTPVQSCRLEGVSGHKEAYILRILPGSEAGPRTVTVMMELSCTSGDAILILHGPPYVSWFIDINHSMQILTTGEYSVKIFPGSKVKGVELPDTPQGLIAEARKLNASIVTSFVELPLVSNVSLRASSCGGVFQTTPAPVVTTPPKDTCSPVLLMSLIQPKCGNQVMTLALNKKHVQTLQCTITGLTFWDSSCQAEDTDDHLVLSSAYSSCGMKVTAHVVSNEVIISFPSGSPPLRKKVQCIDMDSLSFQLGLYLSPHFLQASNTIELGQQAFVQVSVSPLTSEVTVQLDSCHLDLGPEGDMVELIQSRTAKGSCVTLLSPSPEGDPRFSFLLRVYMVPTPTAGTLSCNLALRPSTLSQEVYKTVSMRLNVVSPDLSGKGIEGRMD
Description: SPR (Biacore), captured construct, soluble ligand.

In assay [5] the target is T4, human TGF-β1 (human, UniProt P01137 279-390).
T4 construct: also called hTGF-β1
Description: refers back to Example 3 (SPR).

Assay [6] deals with B7. Description: refers back to Example 3 (SPR).
For assay [7], the target named is B4. Description: refers back to Example 3 (SPR).
The target in assay [8] is T5, VEGF (human, UniProt P15692-4 27-191, limits assumed).
T5 construct: also called vascular endothelial growth factor
Description: SPR.

The target of assay [9] is T1, human BMP-9. Description: SPR competition: hENG(26-586) 0-50 nM premixed with 10 nM BMP-9, binding to captured ALK1. The source says: (§1) BMP-9 and BMP-10 are high-affinity ligands at the type I receptor ALK1 (activin receptor-like kinase 1). […] Similar results were obtained with BMP-10 (FIG. 21).
Assay [10] addresses T1, human BMP-9. Description: SPR competition: hENG(26-586) premixed with BMP-9, binding to captured ALK1-hFc.
Excerpt: as §1

Assay [11] deals with T2, human BMP-10. Description: SPR competition: hENG(26-586) 0-50 nM premixed with 10 nM BMP-10, binding to captured ALK1.
Excerpt: as §1

The values below come from patent publication US20200164029A1 (ACCELERON PHARMA, published 2020).

Where only a bound is given, the exact number is not on record here.

T5 sequence (P15692 other isoform, or with tags, fused parts or gaps limits assumed): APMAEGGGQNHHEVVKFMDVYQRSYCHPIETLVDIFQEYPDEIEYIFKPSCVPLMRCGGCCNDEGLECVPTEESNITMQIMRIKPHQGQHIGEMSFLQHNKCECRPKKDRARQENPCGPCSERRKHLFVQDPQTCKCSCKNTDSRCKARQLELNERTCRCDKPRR
T4 sequence (P01137 279-390 limits assumed): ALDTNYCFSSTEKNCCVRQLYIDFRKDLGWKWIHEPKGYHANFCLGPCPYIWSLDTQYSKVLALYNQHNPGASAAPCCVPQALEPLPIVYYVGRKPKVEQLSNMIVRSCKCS

B1: hENG(360-437)-hFc (Fc fusion)
chain: QTKCADDAMTLVLKKELVAHLKCTITGLTFWDPSCEAEDRGDKFVLRSAYSSCGMQVSASMISNEAVVNILSSSSPQR
notes: Expressed in COS cells, not purified; not shown: human IgG1 Fc domain
As to B1, the binding result in [1] and in assay [2] was “no binding (tested: 100 nM)” each time.

B2: hENG(360-457)-hFc (Fc fusion)
chain: QTKCADDAMTLVLKKELVAHLKCTITGLTFWDPSCEAEDRGDKFVLRSAYSSCGMQVSASMISNEAVVNILSSSSPQRKKVHCLNMDSLSFQLGLYLS
notes: as for B1
Regarding B2, the binding result in assay [1] and in assay [2] was “no binding (tested: 100 nM)” in each case.

B3: human BMP-7 (ligand, UniProt P18075 293-431, looked up)
chain: STGSKQRSQNRSKTPKNQEALRMANVAENSSSDQRQACKKHELYVSFRDLGWQDWIIAPEGYAAYYCEGECAFPLNSYMNATNHAIVQTLVHFINPETVPKPCCAPTQLNAISVLYFDDSSNVILKKYRNMVVRACGCH
notes: also called hBMP-7
For the molecule B3, the binding result in [3] and in assay [4] was “no binding (tested: 25 nM)” throughout.

As for B4, the figures for the binding result in assay [3] and in assay [4] were “no binding (tested: 25 nM)” and “no binding (tested: 10 nM)”, respectively.

B5: mENG(27-581)-mFc (Fc fusion)
chain: GGERVGCDLQPVDPTRGEVTFTTSQVSEGCVAQAANAVREVHVLFLDFPGMLSHLELTLQASKQNGTETQEVFLVLVSNKNVFVKFQAPEIPLHLAYDSSLVIFQGQPRVNITVLPSLTSRKQILDWAATKGAITSIAALDDPQSIVLQLGQDPKAPFLCLPEAHKDMGATLEWQPRAQTPVQSCRLEGVSGHKEAYILRILPGSEAGPRTVTVMMELSCTSGDAILILHGPPYVSWFIDINHSMQILTTGEYSVKIFPGSKVKGVELPDTPQGLIAEARKLNASIVTSFVELPLVSNVSLRASSCGGVFQTTPAPVVTTPPKDTCSPVLLMSLIQPKCGNQVMTLALNKKHVQTLQCTITGLTFWDSSCQAEDTDDHLVLSSAYSSCGMKVTAHVVSNEVIISFPSGSPPLRKKVQCIDMDSLSFQLGLYLSPHFLQASNTIELGQQAFVQVSVSPLTSEVTVQLDSCHLDLGPEGDMVELIQSRTAKGSCVTLLSPSPEGDPRFSFLLRVYMVPTPTAGTLSCNLALRPSTLSQEVYKTVSMRLNIVSPDLSGKGTGGGEPRVPITQNPCPPLKECPPCAAPDLLGGPSVFIFPPKIKDVLMISLSPMVTCVVVDVSEDDPDVQISWFVNNVEVHTAQTQTHREDYNSTLRVVSALPIQHQDWMSGKEFKCKVNNRALPSPIEKTISKPRGPVRAPQVYVLPPPAEEMTKKEFSLTCMITGFLPAEIAVDWTSNGRTEQNYKNTATVLDSDGSYFMYSKLRVQKSTWERGSLFACSVVHEGLHNHLTTKTISRSLGK
notes: also called mu-Endoglin; soluble murine ENG fusion protein
B5: the binding result in [5], in assay [6], in assay [7] and in [8] was “no binding” each time.

B6: human activin A (ligand, UniProt P08476 311-426, looked up)
chain: GLECDGKVNICCKKQFFVSFKDIGWNDWIIAPSGYHANYCEGECPSHIAGTSGSSLSFHSTVINHYRMRGHSPFANLKSCCVPTKLRPMSMLYYDDGQNIIKKDIQNMIVEECGCS
notes: also called hActivin A
As for B6, the binding result in assay [3] and in assay [4] was “no binding (tested: 25 nM)” throughout.

In the case of B7, the binding result is on record as “no binding (tested: 25 nM)” in assay [3] and “no binding (tested: 10 nM)” in assay [4].

B8: hENG(258-346)-hFc (Fc fusion)
chain: YVSWLIDANHNMQIWTTGEYSFKIFPEKNIRGFKLPDTPQGLLGEARMLNASIVASFVELPLASIVSLHASSCGGRLQTSPAPIQTTPP
notes: not shown: human IgG1 Fc domain
Turning to B8, the binding result in [1] and in [2] was “no binding (tested: 100 nM)” throughout.

B9: human BMP-2 (ligand, UniProt P12643 283-396, looked up)
chain: QAKHKQRKRLKSSCKRHPLYVDFSDVGWNDWIVAPPGYHAFYCHGECPFPLADHLNSTNHAIVQTLVNSVNSKIPKACCVPTELSAISMLYLDENEKVVLKNYQDMVVEGCGCR
notes: also called hBMP-2
With B9, the binding result in [3] and in assay [4] was “no binding (tested: 25 nM)” in each case.

B10: hBMP-2/7 (ligand, human)
chain 1: QAKHKQRKRLKSSCKRHPLYVDFSDVGWNDWIVAPPGYHAFYCHGECPFPLADHLNSTNHAIVQTLVNSVNSKIPKACCVPTELSAISMLYLDENEKVVLKNYQDMVVEGCGCR
chain 2: STGSKQRSQNRSKTPKNQEALRMANVAENSSSDQRQACKKHELYVSFRDLGWQDWIIAPEGYAAYYCEGECAFPLNSYMNATNHAIVQTLVHFINPETVPKPCCAPTQLNAISVLYFDDSSNVILKKYRNMVVRACGCH
notes: read as the BMP-2/BMP-7 heterodimer
Turning to B10, the binding result in assay [3] and in assay [4] was “no binding (tested: 25 nM)” throughout.

For orientation: IC50 means the point on the concentration scale where inhibition reaches its midpoint. Lower therefore signals inhibition by little substance. Consider B11, for which the IC50 was 9.7 nM in assay [9], less than 10 nM in [10] and 6.3 nM in [11].
